Data: the RNAGym collection of RNA variant scans (doi:10.1073/pnas.2313332121)
Variants at the floor of the assay were thinned out.

B1: TPR 5TU (parent)
chain: GGAUCUUCUCGAUCUAACAAAAAAGACAAAUCUGCCACAAAGCUUGAGAGCAUCUUCGGAUGCAGAGGCGGCAGCCUUCGGUGGCGCGAUAGCGCCAACGUUCUCAACUAUGACACGCAAAACGCGUGCUCCGUUGAAUGGAGUUUAUCAUG

Variants of: B1
Assay: polymerase ribozyme fitness, log enrichment relative to wild type (log ratio); higher = more active; in vitro selection for triplet polymerase activity
Method in brief: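 Fitness is a logarithmic measure of how a genotype enriched relative to the wild type, with replicate averages weighted by inverse variance. The logarithm uses base 2, and enrichment came from Illumina sequencing of input and output libraries. Those libraries were PCR-built, transcribed mutants of each subunit of a heterodimeric triplet polymerase ribozyme, passed through one triplicate in vitro selection round that included frozen incubation at −7 °C, gel excision of extended constructs and streptavidin-bead capture. Genotypes were kept only if they had ≥10 input reads and ≥1 read per output.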

GGAUCUUCUCCAUCUAACAAAAAAGACAAAUCUGCCACAAAGCUUGAGAGCAUCUUCGGAUGUAGAGGCGGCAGCCUUCGGUGGUUCGAUAGCGCCAACGUUCUCAACUAUGAUACGCAAAACGCGUGCUCCGUUGAAUGGAGUUUAUCAUG [G11C C63U C85U G86U C114U] and GGAUCUUCUCUAUCUAACUAAAAAGACAAAUUCGCCACAAAGCUUGAGAGCAUCUUCGGAUGCAGAGGCGGCAACCUUCGGUGGUGCGAUAGCGCCAACGUUCUCAACUAUGACACGCAAAACGCGUGCUCCGUUGAAUGUAGUUUAUAAUG [G11U A19U C32U U33C G74A C85U G141U C149A] cannot be ordered by “polymerase ribozyme fitness (log ratio)” value: at most -4.2 for the first, at most -4.2 for the second.

Going from GGAUCUUCUCCAUCUAACAAAAAACACGAAUCUGCGACAAAGCUUGAGAGCAUCUUCGGAUGCAGAGGCGGCAGUCUUCGGUGGCGCGAUAGCGCUAACGUUCUCAACUAUGACUCGCAAAUCGCGUGCUCCGUUGAAUGGAGUUUAUCAUG [G11C G25C A28G C36G C75U C96U A115U A122U] to GGAUCUUCUCCAUCUAACAAAAAAGACAAAUCUGCCACAAAGCUUGAGAGCAUCUUCGAAUGCAGAGGCGGCGGCCUUCGGGGGCGCGAUAGCGCCAACGUUCUCAACUAUGACACGCAAAACGCGUGCUCCGUUGAAUGGAGUUUAUCAUG [G11C G59A A73G U82G], the “polymerase ribozyme fitness (log ratio)” value rises from -3.98 to -2.2.

Going from GGAUCUUCUCCAUCUAACAAAAAAGACAAAUCUGCCACAAAGCUUCAGAGCAUCUUCGCAUGCAGAGGCGGCAGCCUUCGGUGGCGCGAUAUCGCCAACGUUCUCAACUAUGACACGCAAAACGCGUGCUCCGUUGAAUGGAGUUUAUCAUG [G11C G46C G59C G92U] to GGAUCUUCUCUAUCUAACAAAGAAGACAAAUCUGCCACAAAGCUUGAGAGCAUUUUCGGAUGCAAAGGCGGCAGCUUUCGGUGGCGCGAUAGCGCCAUCGUUGUCAACUAUGACACGCAAAACGCGUGCUCCGUUGAAUGGAGGUUAUCAUG [G11U A22G C54U G65A C76U A98U C103G U144G], the “polymerase ribozyme fitness (log ratio)” value falls from -3.55 to at most -4.2.

First: GGAUCUUCUCCAUCUAACAAAAAAGACAAAUCUGCCACAAAGCUUGAGAGCAUCUUCGGAUGUAGAGGCGGCAGCCUUUGGUGGCCCGAUAGCGCCAACGUUCUCAACUAUGACACGCAAAACGCGUGCUCCGUUGAAUGGAGUUUAUCAUG [G11C C63U C79U G86C]
Second: GGAUCUUCUCCAUCUAACAAAAAAGACAAAUCUGCCACAAAGCUUGAGAGCAUCUUCGGAUGCAGAGGCGGCAGCCUUCGGUGGCGCGAUAGCGCCAACGUUCUCAACUAUGACAGGCAAAACGCGUGCUCCGUUGAAUGGAGUUUAUCAUG [G11C C116G]
The “polymerase ribozyme fitness (log ratio)” value of the first is lower: at most -4.2 for the first, -0.794 for the second.

First: GGAUCUUCUCCAUCUAACAAAAAAGACAAAUCUGCCACAAAGCUUAAGAGCAUCUUCAGAUGCAGAGGCGGCAGCCUUCGGUAGCGCGAUAGCGCCAACGUUCUCAACUAUGACACGCAAAACGCGUGCUCCGUUGAAUGGAGUUUAUCAUG [G11C G46A G58A G83A]
Second: GGAUCUUCUCCAUCUAACAAAAAAGACAAAUCUGCCACAAAGCUUGAAAGCGUCUUCGGAUGCAGAGGCGGCAGCCUUCGGUGGCGCGAUAGCGCUAACGUUCUCAACUAUGGCACGUAAAACGCGUGCUCCGUUGAAUGUCGUUUAUCAGG [G11C G48A A52G C96U A113G C118U G141U A142C U151G]
The “polymerase ribozyme fitness (log ratio)” value of the first is higher: -3.26 for the first, at most -4.2 for the second.

GGAUCUUCUCCAUCUAACAAAAAAGACAAAUCUGCCACAAAGCUUGAGAGCAUCUUUGGAUGCAGAGGCGGCAGCCUUCGGUGGCGCGAUAGCGUCAACGUUCUCAACUAUGACACGCAAAACGCGAGCUCCGUUGAAUGGAGUUUAUAAUG [G11C C57U C95U U127A C149A] and GGAUCUUCUCUAUCUAACAAAAUAGACAAAUCUGCCACAAAGCUUGAGAGCAUCUUUGGAUGCAGAGGCGGCAGCCUUCGGUGGCACGAUAGCGCCAACGUUCUCAACUAUGACACGCAAAACGCGUGCUCCGUUGAAUGGAGUUUAUCAUG [G11U A23U C57U G86A] cannot be ordered by “polymerase ribozyme fitness (log ratio)” value: at most -4.2 for the first, at most -4.2 for the second.

First: GGAUCUUCUCUAUCUAACAAACAAGACAAAUCUGCCACAAAGCUUGAGAGCAUCUUCGGAUGCAGAGGCGGCAGCCUUCGGUGGCGUGAUAGCGCCAACGUUCUCAACUAUGACACGCAAAACGCGUGCUCCGUUGAAUGGAGUUUAUCAUG [G11U A22C C87U]
Second: GGAUCUUCUCCAUCUAACAAAAAAGACAAAUCUGCCACAAAUCUUGAGAGCAUCGUCGGAUGCAGAGGCGGCAGCUUUCGGUGGCGCGAUAGCGCCAACGUUCUCAACUAUGACACGCAAAACGCGUGCUCCGUUGAAUGGAGUUUAUCAUG [G11C G42U U55G C76U]
The “polymerase ribozyme fitness (log ratio)” value of the first is higher: -2.61 for the first, at most -4.2 for the second.

Going from GGAUCUUCUCCAUCUAACAAAAAAGACAAAUCUGCCACAAAGCUUGAGAUCAUCUUCGGAUGCAGAGGCGGCAGCCUUCGGUGUCGCGAUAGCGCCGACGUUCUCAACUAUGACACGCAAAACGCGUGCUCCGUUGAAUGGAGUUUAUCAUG [G11C G50U G84U A97G] to GGAUCUUCUCCAUCUAACAAAAAAGACAAAUCUGCCAUAAAGCUUGAGAGCAUCUUCGGAUGCAGAGGCGGCAGCCUUCGGUGGGGCGAUAGCGCCAACGUUCUCAACUAUGACACGCAAAACGCGUGCUCCGUCGAAUGGAGUUUAUCAUG [G11C C38U C85G U135C], the “polymerase ribozyme fitness (log ratio)” value falls from -3.09 to at most -4.2.

Going from GGAUCUUCUCCAUCUAACAAAAAAGACAAAUCUGCCACAAAGCUUCAGAGCAUCUUUGGAUGCAGAGGCGGCAGCCUUCGGUGGUGCGAUAGCGCCAACGUUCUCAACUAUGACACGCAAAACGCGUGCUCCGUUGAAUGGAGUUUAUCAUG [G11C G46C C57U C85U] to GGAUCUUCUCCAUCUAACAAAAAAGACAAAUCUGCUACAAAGCUUGAGAGCAUCUUCGGAUGCAGAGGCGGCAGCCUCCGGUGGGGCGAUAGCGCCAACGUUCUCAACUAUGACACGCACAAAACGUGCUCCGUUGAAUGGAGUUUAUCACG [G11C C36U U78C C85G A120C C123A G124A U151C], the “polymerase ribozyme fitness (log ratio)” value falls from -3.93 to at most -4.2.

In the case of GGAUCUUCUCUAUCUAGCAAAAAAGACAAAUCUGCCACAAAGCUUGAGAGCAUCUUUGGAUGUAGAGGCGGCAGCCUUCGAGGGCGCGAUAGCGCCAACGUUCUCAACUAUGACACGCAAAACGCGUGCUCCGUUGAAUGGAGUUUAUCAUG [G11U A17G C57U C63U G81A U82G], the “polymerase ribozyme fitness (log ratio)” value is reported as -1.64.
